± gives the standard deviation.

This data set in a line: protein stability index of a GFP-peptide fusion (GPS, HEK-293T) (PSI 1-6); higher = more stable. Particulars: c terminus: a fixed tail appended.
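Also: 24-mer peptide tiles fused after GFP, lentivirally expressed, FACS-sorted into six equal bins by GFP/DsRed ratio, decoded by Illumina sequencing, PSI is the read-weighted mean bin number.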

Take LGDALAGPPRAPGRSGWPAGGAPG [HES6]: the protein stability index was determined as 3.88 ± 0.23 (treatment: DMSO) and 3.94 ± 0.44 (treatment: MLN4924 1 uM, 8 h).
For LGFAYAKEDKIMLDDRKNEEDGGA [MIA2], the protein stability index was found to be 4.96 ± 0.13 (treatment: DMSO) and 5.18 ± 0.2 (treatment: MLN4924 1 uM, 8 h).
LGFGPTYVVLAYTLPPASRFIIIF [SOAT1]: the protein stability index turned out to be 3.09 ± 0.14 (treatment: DMSO) and 3.03 ± 0.77 (treatment: MLN4924 1 uM, 8 h).
The matching figures for LGFKANIMNEKCVVENAEKILGYL [SLC6A17]: 2.43 ± 0.23 and 2.26 ± 0.14.
For LGSDDEEQEDPADYCKGGYHPVKI [SRPK2], the protein stability index came out at 4.81 ± 0.31 (treatment: DMSO) and 4.67 ± 0.31 (treatment: MLN4924 1 uM, 8 h).
The matching figures for LGTDPTHVMGLYPDLLPTDYRKQL [VPS39]: 3.34 ± 0.36 and 3.42 ± 0.41.
Consider LHAVADIHCENCKTTLGWKYEQAF [YPEL3], for which the protein stability index is, setting by setting: (treatment: DMSO) 2.38 ± 0.49; (treatment: MLN4924 1 uM, 8 h) 2.14 ± 0.46.
The matching figures for LHFIATNYLIFSQKPEFQDLSVEE [RHOBTB3]: 2.5 ± 0.77 and 2.15 ± 0.38.
The matching figures for LHRILHHKHVVQFYHYFEDKENIY [PLK2]: 2.58 ± 0.51 and 2.32 ± 0.38.
Take LHSAIYAARPDVKCVVHIHTPAGA [ADD1]: the protein stability index is 2.24 ± 0.22 (treatment: DMSO) and 2.11 ± 0.28 (treatment: MLN4924 1 uM, 8 h).
LHVACELARPECLFLLLGHGASPG [ANKRD9] yielded a protein stability index (treatment: DMSO) of 2.53 ± 0.61 and a protein stability index (treatment: MLN4924 1 uM, 8 h) of 2.44 ± 0.45.
In turn, LIKAGADIELGCSTPLMEAAQEGH [ANKRD17] came in with a protein stability index (treatment: DMSO) of 4.21 ± 0.57 and a protein stability index (treatment: MLN4924 1 uM, 8 h) of 4.14 ± 0.35.
For the sequence LIQRWYRRYVARLEMRRRCTWSIF [PPEF2], the protein stability index turned out to be 2.43 ± 1.3 (treatment: DMSO) and 2.73 ± 0.57 (treatment: MLN4924 1 uM, 8 h).
Consider LKIFTEDLPEVESLPRDRVLGFLI [VPS39], for which the protein stability index runs as follows: (treatment: DMSO) 2.25 ± 0.49; (treatment: MLN4924 1 uM, 8 h) 2.23 ± 0.43.
The matching figures for LKNEIQEVEELDNWQPAVPLMHML [SPATS1]: 2.8 ± 0.45 and 3.18 ± 0.38.
As to LKPNNLSCDLPEERYRHEIAHDGQ [KLHDC10], the protein stability index was found to be 4.8 ± 0.2 (treatment: DMSO) and 4.8 ± 0.074 (treatment: MLN4924 1 uM, 8 h).
The matching figures for LKQLLTETDVWFSKQRKDFEGMAF [GMCL1]: 2.7 ± 0.48 and 2.52 ± 0.19.
For LKSSGLCESLTYGLPFILRPTSCW [M1AP] the same measures were 2.9 ± 0.31 and 3.06 ± 0.73.
Consider LLDAHILEWHDSLFQILSERQDMY [ZNF511], for which the protein stability index by setting is: (treatment: DMSO) 2.32 ± 0.4; (treatment: MLN4924 1 uM, 8 h) 2.17 ± 0.23.
For LLETDAGPAASEGAEQPPDLHCVL [GADD45A] the same measures were 4.82 ± 0.29 and 4.78 ± 0.18.
As for LLHGLNLLWRKQLFCDVTLTAQGQ [KLHL14], the protein stability index runs as follows: (treatment: DMSO) 3.3 ± 0.17; (treatment: MLN4924 1 uM, 8 h) 2.88 ± 0.53.
For LLPLVTLCDGNPRRPSPVLRHLEL [SCNN1D] the same measures were 2.42 ± 0.42 and 2.27 ± 0.46.
The matching figures for LLRPKYRAPQGCSGVDECARQEGL [PBXIP1]: 3.56 ± 0.23 and 3.65 ± 0.37.
The matching figures for LLRRSVEGASSDNGCEVKNRKSIL [PHTF1]: 3.99 ± 0.17 and 4.05 ± 0.55.
For the sequence LLTRKVICKSDAPTGDVLLDEALK [GOLPH3], the protein stability index is, setting by setting: (treatment: DMSO) 2.51 ± 0.25; (treatment: MLN4924 1 uM, 8 h) 2.91 ± 0.39.
Take LLTTSPVFPHYIEKPLGRVGVFLD [TRIM43]: the protein stability index (treatment: DMSO) turned out to be 2.08 ± 0.12 and the protein stability index (treatment: MLN4924 1 uM, 8 h) amounted to 2.31 ± 0.25.
The matching figures for LMRSQSPKAQPQTWKSGKQTMLSH [TRIM29]: 3.34 ± 0.33 and 3.6 ± 0.28.
As to LMRTCERLVKEGRFVPSNPIGILT [PPTC7], the protein stability index reads like this: (treatment: DMSO) 2.65 ± 0.17; (treatment: MLN4924 1 uM, 8 h) 2.53 ± 0.23.
For LNGLQHLKAKKVWYDMFRDAAAIL [ZMAT5] the same measures were 2.63 ± 0.56 and 2.49 ± 0.34.
On to LNVATFLDPRYKRLPFLSAFERQQ [ZBED1], for which the protein stability index runs as follows: (treatment: DMSO) 2.37 ± 0.086; (treatment: MLN4924 1 uM, 8 h) 2.43 ± 0.42.
The matching figures for LNVDAAVQQWLQKGTPASKLILGM [CHIT1]: 2.21 ± 0.36 and 2.25 ± 0.39.
The matching figures for LNVNLNSVVLRRARGGAVSARYVL [DUSP5]: 2.19 ± 0.54 and 2.26 ± 0.51.
For LNYTYKRFEGLTQRGSIPTYMKAG [STK38L] the same measures were 2.5 ± 0.18 and 2.67 ± 0.22.
On to LPIKIAAIIASLTFLYTLLREVIH [STEAP1], for which the protein stability index was found to be 2.53 ± 0.41 (treatment: DMSO) and 1.82 ± 0.64 (treatment: MLN4924 1 uM, 8 h).
On to LPISTVREVALLRRLEAFEHPNVV [CDK4], for which the protein stability index was found to be 2.62 ± 0.21 (treatment: DMSO) and 2.71 ± 0.45 (treatment: MLN4924 1 uM, 8 h).
Turning to LPLPEQIHKASATIIEPAGESDNP [INTS4], the protein stability index reads like this: (treatment: DMSO) 5.5 ± 0.26; (treatment: MLN4924 1 uM, 8 h) 5.49 ± 0.19.

For the origin of these results see the supplement of paper PMC10567573.
